Reference: patent publication US10350264B2, “Compositions and methods for modulating NCOA4-mediated autophagic targeting of ferritin” (Dana-Farber Cancer Institute, Inc., priority 2014, dated 2019)

Key:
Format in all cases: binding
[1] = biological target: T1, ferritin purified from horse spleen (mixture of FTH1 and FTL subunits) (Equus caballus, UniProt Q8MIP0); assay: anti-MYC immunoprecipitation of in vitro translated MYC-NCOA4 constructs incubated with ferritin; conditions: anti-MYC IP, anti-FTH1 immunoblot, FIG. 5
T1 construct: ferritin purified from horse spleen; purchased Sigma A3641-100 mg; host or cells: horse spleen
T1 sequence (Q8MIP0 whole entry): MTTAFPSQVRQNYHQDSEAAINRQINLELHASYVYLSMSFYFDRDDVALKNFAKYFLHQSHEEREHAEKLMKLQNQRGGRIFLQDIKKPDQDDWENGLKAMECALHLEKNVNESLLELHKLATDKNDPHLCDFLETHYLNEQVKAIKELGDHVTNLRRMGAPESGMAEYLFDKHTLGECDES
T1 sequence (P02791 2-175 partner limits assumed): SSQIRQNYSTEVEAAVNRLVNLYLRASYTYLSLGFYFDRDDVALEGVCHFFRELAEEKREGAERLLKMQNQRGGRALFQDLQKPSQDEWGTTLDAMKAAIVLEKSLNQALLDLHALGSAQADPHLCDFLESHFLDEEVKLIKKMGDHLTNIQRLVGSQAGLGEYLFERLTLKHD
Experimental: To probe the interaction between ferritin and NCOA4, initial binding assays using MYC-tagged NCOA4 full-length and truncation constructs produced using an in vitro translation (“IVT”) system were conducted. MYC-NCOA4 fragments were cloned using PCR into a modified T7 cell-free expression vector (pT7CFE1-NMyc, #88863, Thermo Scientific). 1-Step Human Coupled IVT Kit—DNA from Thermo Scientific (product #88881) was used to produce MYC-tagged NCOA4 constructs as described in the product manual. Apoferritin (Sigma, A3641-100 mg) was added in a pull-down assay using anti-c-Myc Agarose Affinity Gel antibody produced in rabbit (Sigma, A7470-1 ML). Affinity purification reactions were washed thoroughly with 150 mM NaCl, 20 mM Tris (pH 7.4), and 2 mM dithiothreitol. Proteins were eluted with SDS sample buffer and analyzed by 4-20% gradient SDS-PAGE and immunoblotting with anti-FTH1 antibody (Cell Signaling 3998; Western blot 1:1,000) or anti-MYC antibody (Santa Cruz Sc-40; western blot 1:1,000).
The full-length, N-terminal (amino acids (aa) 1-245 of SEQ ID NO: 4) and C-terminal (aa 235-614 of SEQ ID NO:4) MYC-NCOA4 were incubated with ferritin purified from horse spleen (Apoferritin (Sigma, A3641-100 mg), consisting of a mixture of FTH1 and FTL subunits) and anti-MYC immunoprecipitation was performed followed by immunoblotting as described above.

[2] = biological target: T2, apo-ferritin purified from equine spleen (Equus caballus, UniProt Q8MIP0); assay: GST pull-down assay of ferritin using GST-NCOA4 fragments; conditions: anti-FTH1 immunoblot, FIGS. 7, 8, 11
T2 construct: apo-ferritin purified from equine spleen; purchased Sigma F4503; host or cells: equine spleen
T2 sequence (Q8MIP0 whole entry, the tested form may be a part): as the sequence (Q8MIP0 whole entry) above
T2 sequence (P02791 2-175 partner limits assumed): as the sequence (P02791 2-175 partner limits assumed) above
Source text: GST-tagged NCOA4 constructs were also made to probe the interactions of C-terminal portions of NCOA4 with ferritin. NCOA4-truncation constructs were produced using Gateway cloning (Invitrogen, Life Technologies, catalog #11789-013 and 11791-019) into a pDEST60 N-terminal GST fusion plasmid (GST-NCOA4) from EMD Millipore (Gateway Nova pET-60-DEST, product #71851-3) and transformed in E. coli BL21 (DE3) cells (New England Biosciences, C2527I).
NCOA4 truncation constructs were designed based on NCBI reference sequence: NP_001138735.1 (SEQ ID NO: 4). In particular, fragments of SEQ ID NO: 4 consisting of amino acids (aa) 1-245, aa 235-614, aa 235-560, aa 235-401, aa 383-560, aa 545-614, aa 383-522, aa 510-560, aa 383-436, aa 436-485, aa 475-522, aa 475-500, aa 480-500, aa 480-504, aa 485-509, aa 490-514, aa 495-522 were designed. Protein expression in the DE3 cells was induced with 1 mM isopropyl-beta-D-thiogalactopyranoside (IPTG) (Sigma, I6758-10 G) for 3 hours at 37° C. Cells were collected by centrifugation, re-suspended in 25 mM Tris-HCl (pH 7.4), 10% (w/v) sucrose and lysed with a single freeze-thaw cycle followed by sonication. After centrifugation, a GST pull-down assay was performed.
(§1) In the GST pull-down assay, lysates were incubated with 10 μl of a 50% (v/v) slurry of glutathione Sepharose 4B beads (GE Healthcare Lifesciences, 17-0756-01) for 30 minutes at 4° C. Beads were washed thoroughly with 150 mM NaCl, 20 mM Tris (pH 7.4), 2 mM dithiothreitol (DTT), 0.5% (w/v) Nonidet P-40, leaving 50-100 μg of GST-fusion protein bound to the beads. Beads were then mixed with 0.5-2 μg of apo-ferritin purified from equine spleen (Sigma F4503) or recombinant human FTH1 or FTL produced in Rosetta E. coli (EMD Millipore, 70953-3). The assay mix was incubated for 2 hours at 4° C., and beads were washed four times with 1 ml wash buffer. Proteins were eluted with SDS sample buffer and analyzed by 4-20% gradient SDS-PAGE and immunoblotting with anti-FTH1 antibody (as above) or anti-FLAG antibody (Sigma, F1804-200 UG). Pounceau stain was used to visualize GST-NCOA4 bands. (Pounceau, Sigma, P7170-1 L, protocol as per product manual).

recombinant human FTH1 = biological target: T3, recombinant human FTH1 (Homo sapiens, UniProt P02794); assay: GST pull-down assay of recombinant FTH1 using GST-NCOA4; conditions: recombinant FTH1 from E. coli, 0.2 μg and 1 μg, FIG. 10A
T3 construct: made in house; host or cells: Rosetta E. coli (EMD Millipore, 70953-3)
T3 sequence (P02794 whole entry): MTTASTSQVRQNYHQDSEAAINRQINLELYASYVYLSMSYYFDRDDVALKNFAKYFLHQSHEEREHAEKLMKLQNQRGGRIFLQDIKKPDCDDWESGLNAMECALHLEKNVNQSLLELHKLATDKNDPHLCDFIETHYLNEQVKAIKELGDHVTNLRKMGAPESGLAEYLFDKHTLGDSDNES
Experimental: as §1
(§2) To understand if there was subunit specificity for NCOA4 binding to ferritin, the NCOA4 C-terminus (aa 235-614) fusion protein was immobilized on glutathione Sepharose beads, as described in Example 1. Recombinant purified FTH1 or FTL produced in E. coli was added at concentrations of 0.2 μg and 1 μg, and binding was determined using the GST pull-down assay described in Example 1, above.

recombinant human FTL = biological target: T4, recombinant human FTL (Homo sapiens, UniProt P02792); assay: GST pull-down assay of recombinant FTL using GST-NCOA4; conditions: recombinant FTL from E. coli, 0.2 μg and 1 μg; FIG. 10B; listed as GST-NCOA4 fragment
T4 construct: made in house; host or cells: Rosetta E. coli (EMD Millipore, 70953-3)
T4 sequence (P02792 whole entry, the tested form may be a part): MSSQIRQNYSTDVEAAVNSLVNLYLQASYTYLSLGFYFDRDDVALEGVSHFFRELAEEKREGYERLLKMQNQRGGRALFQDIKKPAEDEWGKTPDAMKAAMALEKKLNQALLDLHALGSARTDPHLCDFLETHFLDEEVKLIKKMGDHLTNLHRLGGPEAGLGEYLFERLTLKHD
Experimental: as §1, §2

association of MYC-NCOA4 construct with ferritin [1]: associated with ferritin
association of MYC-NCOA4 construct with ferritin ([1]; listed as C-terminal NCOA4): bind to ferritin
binding of GST-NCOA4 fragment to ferritin [2]: bound to ferritin
binding of GST-NCOA4 to FTH1 (recombinant human FTH1; listed as GST-NCOA4 fragment): binds to FTH1
binding of GST-NCOA4 to FTH1 (recombinant human FTH1; listed as NCOA4 C-terminus): interacted with the NCOA4 C-terminus
binding of GST-NCOA4 to FTL (recombinant human FTL): binds minimally to FTL
B1: aa 235-614: NCOA4 C-terminal fragment, amino acids 235-614 of SEQ ID NO: 4 (protein)
chain: ENSQTSSRACNFFNNVGGNLKGLENWLLKSEKSSYQKCNSHSTTSSFSIEMEKVGDQELPDQDEMDLSDWLVTPQESHKLRKPENGSRETSEKFKLLFQSYNVNDWLVKTDSCTNCQGNQPKGVEIENLGNLKCLNDHLEAKKPLSTPSMVTEDWLVQNHQDPCKVEEVCRANEPCTSFAECVCDENCEKEALYKWLLKKEGKDKNGMPVEPKPEPEKHKDSLNMWLCPRKEVIEQTKAPKAMTPSRIADSFQVIKNSPLSEWLIRPPYKEGSPKEVPGTEDRAGKQKFKSPMNTSWCSFNTADWVLPGKKMGNLSQLSSGEDKWLLRKKAQEVLLNSPLQEEHNFPPDHYGLPAVCDLFACMQLKVDKEKWLYRTPLQM
modifications: Homo sapien
